Experimental data from US11969464B2, “Amidated peptides and their deamidated counterparts displayed by HLA-A*02 for use in immunotherapy against different types of cancers” (Immatics Biotechnologies GmbH, priority 2020, dated 2024).

Columns and labels:
[1] = molecular target: HLA-A*02:01 (Homo sapiens, UniProt P04439, D140Y/D185E/D98H/E176V/E277Q/G131W/G231S/I119V/I121R/I166T/I218V/L300P/L318F/N151K/N90K/P208A/P217A/Q86G/Q94H/R138H/R169H/T345S); experiment: MHC binding assay (UV-ligand exchange, anti-β2m ELISA); details: peptide exchange yield, binding to HLA-A*02:01
Description: Candidate peptides for T cell based therapies according to the present invention were further tested for their MHC binding capacity (affinity). The individual peptide-MHC complexes were produced by UV-ligand exchange, where a UV-sensitive peptide is cleaved upon UV-irradiation and exchanged with the peptide of interest as analyzed. Only peptide candidates that can effectively bind and stabilize the peptide-receptive MHC molecules prevent dissociation of the MHC complexes. To determine the yield of the exchange reaction, an ELISA was performed based on the detection of the light chain (β2m) of stabilized MHC complexes. The assay was performed as generally described in Rodenko et al. (Rodenko et al., 2006).
96 well MAXISorp plates (NUNC) were coated over night with 2 μg/ml streptavidin in PBS at room temperature, washed 4× and blocked for 1 h at 37° C. in 2% BSA containing blocking buffer. Refolded HLA-A*02:01/MLA-001 monomers served as standards, covering the range of 15-500 ng/ml. Peptide-MHC monomers of the UV-exchange reaction were diluted 100-fold in blocking buffer. Samples were incubated for 1 h at 37° C., washed four times, incubated with 2 μg/ml HRP conjugated anti-β2m for 1 h at 37° C., washed again and detected with TMB solution that is stopped with […]. Absorption was measured at 450 nm. Candidate peptides that show a high exchange yield (preferably higher than 50%, most preferred higher than 75%) are generally preferred for a generation and production of antibodies or fragments thereof, and/or T cell receptors or fragments thereof, as they show sufficient avidity to the MHC molecules and prevent dissociation of the MHC complexes.

[2] = system: CD8+ T cells; experiment: In vitro T cell priming assay with aAPCs loaded with peptide/MHC complexes and anti-CD28, pMHC multimer readout; assay type: cell-based, human; details: percentage of positive wells and donors (among evaluable), healthy HLA-A*02+ donors
Description: In order to obtain information regarding the immunogenicity of the TUMAPs of the present invention, the inventors performed investigations using an in vitro T cell priming assay based on repeated stimulations of CD8+ T cells with artificial antigen presenting cells (aAPCs) loaded with peptide/MHC complexes and anti-CD28 antibody.
In order to perform in vitro stimulations by artificial antigen presenting cells loaded with peptide-MHC complex (pMHC) and anti-CD28 antibody, the inventors first isolated CD8+ T cells from fresh HLA-A*02 leukapheresis products via positive selection using CD8 microbeads (Miltenyi Biotec, Bergisch-Gladbach, Germany) of healthy donors obtained from the University clinics Mannheim, Germany, after informed consent.
PBMCs and isolated CD8+ lymphocytes were incubated in T cell medium (TCM) until use consisting of RPMI-Glutamax (Invitrogen, Karlsruhe, Germany) supplemented with 10% heat inactivated human AB serum (PAN-Biotech, Aidenbach, Germany), 100 U/ml Penicillin/100 μg/ml Streptomycin (Cambrex, Cologne, Germany), 1 mM sodium pyruvate (CC Pro, Oberdorla, Germany), 20 μg/ml Gentamycin (Cambrex). 2.5 ng/ml IL-7 (PromoCell, Heidelberg, Germany) and 10 U/ml IL-2 (Novartis Pharma, Nurnberg, Germany) were also added to the TCM at this step.
Generation of pMHC/anti-CD28 coated beads, T cell stimulations and readout was performed in a highly defined in vitro system using four different pMHC molecules per stimulation condition and 8 different pMHC molecules per readout condition.
The purified co-stimulatory mouse IgG2a anti human CD28 Ab 9.3 (Jung et al., 1987) was chemically biotinylated using Sulfo-N-hydroxysuccinimidobiotin as recommended by the manufacturer (Perbio, Bonn, Germany). Beads used were 5.6 μm diameter streptavidin coated polystyrene particles (Bangs Laboratories, Illinois, USA).
800.000 beads/200 μl were coated in 96-well plates in the presence of 4×12.5 ng different biotin-pMHC, washed and 600 ng biotin anti-CD28 were added subsequently in a volume of 200 μl. Stimulations were initiated in 96-well plates by co-incubating 1×10^6 CD8+ T cells with 2×10^5 washed coated beads in 200 μl TCM supplemented with 5 ng/ml IL-12 (PromoCell) for 3 days at 37° C. Half of the medium was then exchanged by fresh TCM supplemented with 80 U/ml IL-2 and incubating was continued for 4 days at 37° C. This stimulation cycle was performed for a total of three times. For the pMHC multimer readout using 8 different pMHC molecules per condition, a two-dimensional combinatorial coding approach was used as previously described (Andersen et al., 2012) with minor modifications encompassing coupling to 5 different fluorochromes. Finally, multimeric analyses were performed by staining the cells with Live/dead near IR dye (Invitrogen, Karlsruhe, Germany), CD8-FITC antibody clone SK1 (BD, Heidelberg, Germany) and fluorescent pMHC multimers. For analysis, a BD LSRII SORP cytometer equipped with appropriate lasers and filters was used. Peptide specific cells were calculated as percentage of total CD8+ cells. Evaluation of multimeric analysis was done using the FlowJo software (Tree Star, Oregon, USA). In vitro priming of specific multimer+CD8+ lymphocytes was detected by comparing to negative control stimulations.

Substance | Peptide exchange [1] | Wells positive [%] [2]
100 (SLLFQDITL; peptide displayed by HLA-A*02) [compound 100] | ++++ (≥75% = ++++) | + (<20% = +)
98 (NLLADVSTV; peptide displayed by HLA-A*02) [compound 98] | +++ (≥50% = +++) | + (<20% = +)
7 (ALADLTGTV; peptide displayed by HLA-A*02) [compound 7] | ++++ (≥75% = ++++) | + (<20% = +)
101 (TLDATVVEL; peptide displayed by HLA-A*02) [compound 101] | ++++ (≥75% = ++++) | ++ (20%-49% = ++)
96 (KLDASLPAL; peptide displayed by HLA-A*02) [compound 96] | ++++ (≥75% = ++++) | + (<20% = +)
79 (ALAGLVYDA; peptide displayed by HLA-A*02) [compound 79] | ++++ (≥75% = ++++) | –
50 (ALYDSTRELL; peptide displayed by HLA-A*02) [compound 50] | ++++ (≥75% = ++++) | –
11 (GLVDGSSVTV; peptide displayed by HLA-A*02) [compound 11] | ++++ (≥75% = ++++) | –
59 (SQTDLSPAL; peptide displayed by HLA-A*02) [compound 59] | ++++ (≥75% = ++++) | –
66 (LLDDQTVTF; peptide displayed by HLA-A*02) [compound 66] | +++ (≥50% = +++) | –
53 (ILTDITGHDV; peptide displayed by HLA-A*02) [compound 53] | +++ (≥50% = +++) | –
39 (AVFDQTVTVI; peptide displayed by HLA-A*02) [compound 39] | +++ (≥50% = +++) | –
56 (LLDSTAHLL; peptide displayed by HLA-A*02) [compound 56] | ++++ (≥75% = ++++) | –
97 (KLLDGSQRV; peptide displayed by HLA-A*02) [compound 97] | +++ (≥50% = +++) | + (<20% = +)
61 (FISDFTMTI; peptide displayed by HLA-A*02) [compound 61] | ++++ (≥75% = ++++) | –
32 (ALADLTGTVVNL; peptide displayed by HLA-A*02) [compound 32] | ++++ (≥75% = ++++) | –
83 (FLNVDVSEV; peptide displayed by HLA-A*02) [compound 83] | ++++ (≥75% = ++++) | –
85 (LLDITNPVL; peptide displayed by HLA-A*02) [compound 85] | ++++ (≥75% = ++++) | –
68 (RLQDTTIGL; peptide displayed by HLA-A*02) [compound 68] | ++++ (≥75% = ++++) | –
29 (KLLDLTVRI; peptide displayed by HLA-A*02) [compound 29] | ++++ (≥75% = ++++) | –
69 (SLLDENDVSSYL; peptide displayed by HLA-A*02) [compound 69] | ++++ (≥75% = ++++) | –

Continued, in another order:

Peptide exchange [1] | Substance | Wells positive [%] [2]
++++ (≥75% = ++++) | 65 (ILLDKSTVL; peptide displayed by HLA-A*02) [compound 65] | + (<20% = +)
+++ (≥50% = +++) | 6 (NLYNDLTNV; peptide displayed by HLA-A*02) [compound 6] | + (<20% = +)
+++ (≥50% = +++) | 8 (KLAPDLTEL; peptide displayed by HLA-A*02) [compound 8] | + (<20% = +)
++++ (≥75% = ++++) | 76 (SLLRDFTLV; peptide displayed by HLA-A*02) [compound 76] | + (<20% = +)
++++ (≥75% = ++++) | 23 (FLGPIVDL; peptide displayed by HLA-A*02) [compound 23] | –
+++ (≥50% = +++) | 47 (VIDSTLVKV; peptide displayed by HLA-A*02) [compound 47] | ++ (20%-49% = ++)
+++ (≥50% = +++) | 12 (FVDEHTIDI; peptide displayed by HLA-A*02) [compound 12] | –
++++ (≥75% = ++++) | 13 (VLMDGTLKQV; peptide displayed by HLA-A*02) [compound 13] | –
++++ (≥75% = ++++) | 80 (ALDSSLQLL; peptide displayed by HLA-A*02) [compound 80] | –
+++ (≥50% = +++) | 18 (ILDEAKDISF; peptide displayed by HLA-A*02) [compound 18] | –
+++ (≥50% = +++) | 30 (QLMEKVQDV; peptide displayed by HLA-A*02) [compound 30] | –
++++ (≥75% = ++++) | 102 (WLIDKSMEL; peptide displayed by HLA-A*02) [compound 102] | –
++++ (≥75% = ++++) | 87 (NMYDLTFHV; peptide displayed by HLA-A*02) [compound 87] | –
